Laboratory results: the RNAGym collection of RNA variant scans (doi:10.7554/elife.90254)

B1: LINE1-full (parent)
chain: UACGUAGGUGGUUUUCCCCUGAUAGUGCUAAGGGGGCCUGGAAGUUUGGACUGGGCAGAGCUCAACACAGCGUGGCAAAGUGGCUGUGGCUAGACUGCCUCUCUGGAUUCCUCGUCACUCAGCAGGGCAUCUCUGAGAGAAAUGCC

Variants of: B1
Assay: self-cleavage, relative activity (ratio to wild type); higher = more cleavage; in vitro, sequencing; the parent is a self-cleaving ribozyme

Variant	self-cleavage
U5A A50G	0.78
G4C U12G	0.93
G4C U91A	0.75
U5A U20A	1.12
U5A A129U	1.47
G4U A129G	1.07
G4U U45A	1.04
A6C A121U	1.18
U5G A59G	0.19
U5A G125U	0.15
U5A G36C	1.16
U5C A69G	0.78
G4C U15C	1.18
U5C U13C	0.87
G4C U130A	1.1
U5G U39C	0.63
G4U U13C	0.93
U5C A138U	1.58
U5C A138G	1.18
U5A A31U	1.1
U5A A31G	0.82

Variant	self-cleavage
U5C U130A	0.77
G4U A142G	1.46
U5C G36C	1.25
U5C U104C	1.11
U5A U15C	0.94
U5C C38A	1.79
U5C G137A	1.38
G4U U96A	0.09
U5A U112C	0.71
U5C G41U	1.03
U5C U81C	0.8
A6C A57G	0.92
U5C A64U	0.49
U5A C110U	0.34
U5G A138G	0.2
U5C U112C	0.99
U5C U112A	1.15
G4U U20C	1.33
U5G A141G	0.49
U5C G48A	0.45
U5C G8A	0.24

Variant	self-cleavage
U5C G127C	1.12
A6C A141G	1.71
U5A G32A	0.93
U5A U47A	0.59
U5A U9A	0
U5A C98U	0.53
U5A A140G	0.88
U5C G74A	1.19
G4U G80C	1.07
U5A U13C	0.99
U5A A121G	0.84
G4C U100C	1.81
U5C U132A	1.98
G4C U132C	0.97
U5C C66U	0.13
G4C U85C	0.13
U5C A6G	0.65
U5C A6U	1.09
U5A A67U	0.14
U5A A59U	0.52
U5A A59G	0.11

Variant	self-cleavage
U5A G44A	0.81
U5C A129C	1.69
U5C A129U	1.05
U5G U100C	1.15
U5A A65U	0.26
U5A A65G	0.08
U5A A78U	1.89
U5C A67G	0.67
U5A C90G	0.09
U5C U91G	0
U5A C61A	0.03
U5G G34C	0.94
U5C A78G	1.18
U5C C128U	1.53
G4U C61U	0.08
U5G A50U	0.38
U5C C110A	1.19
U5C U73A	1.74
G4U	1.25
U5C A136G	1.62
U5C G75A	1.15
